Consider 17 sequences from the DeepSol protein solubility set.

The nature of this series: soluble on expression in E. coli; label from the status in PepcDB or PDB records.
On to “MGSDKIHHHHHHMNTLASIQELARAIRNMIRTGIVVETDLDAGRCRVQTGGIYTDWLQWLTHRAGRSRTWWAPSIGEQVMILAVGGELDTAFVLPGIYSDDNPAPSASADAWHVEFPDGAVMSYEPETGALTVTGIKTADVTASDSVAVSVPVVLVKAETRVTLDTPEVVCTNKLTTGTLEVKQGGKMSGDIEHSGGAFTSNGVQVDKHGHGGIRRGDEWTEGTQ”, for which the “soluble on expression in E. coli” value is on record as “not soluble”.

With “MGSDKIHHHHHHMEKQEIIEKLVELKDRLIEDVYQAYSRNTSDYGHERYNAWKKSVTKFLNQYIPNEVQRFNEKANPTYGVFLRRNGMSYHDFFWKTDGSAMNAYLESLILDIQNDDYDFTPINKEVQDVKTIPEAKSKKVLIVHGHDEAAKYRTEAFLRKHGFDPIILHLNASKGDTIIKKLERLAEGVGYGIVLYTPDDMGETKVKAVQHELQPRARQNVVFEHGYLMGLIGRPNVAAIVEGYVEKPSDIDGVVYIPSSNWEIDLLRELHEAGYPINPANL”, the “soluble on expression in E. coli” value was “not soluble”.

With “MKNSLCNSVSSVVKKLLEYGEDGTPVYVNELTALNQELRNLCADLLLQKGESPEEEAEILVTLFKGYDTMLFNFSSENEQVIQELLDRSMTVLEKLPASVLKCQLLLECFEQTGDEELIREAKKNIERVI”, the “soluble on expression in E. coli” value is on record as “soluble”.

Turning to “MGSDKIHHHHHHMARLAVEPLEALARYQGEPALAAMRREFLPAVTDPVWRGLVEEFLTLDEPLTPYAHQCRRVWSFAASPGSGAHHAHIGGLALHVLQDLRNARALAEAHEARGLALDRGLLFAAIMLHDCLKRFVYDFDDDYALVKAEDPFIARHEDHHSWMLRELVARGVDRTLVLAVAAMHGLDDVSLASGVRPLAVVNHYLEIGLTGLEMQPEDVRAEHSIGFLSDSDWPWSGRAQQRAREVAAALSPRFEVTTGYMNLYLGSRFSFEHIDSLLRTKGHDGTVDHLSTLLEKQG”, the “soluble on expression in E. coli” value was “not soluble”.

Turning to “MEAKKSNKIREIVKLQQLLKKWRKQAIASKAANNNNEDNNSSGGGSKSIKFLKRTLSFTDVTAVPKGYLAVSVGLEKKRYTIPTEYLSHQAFYVLLREAEEEFGFQQAGVLRIPCEVSVFESILKIMEEKNEGYLVTPITAKQECKFNAAADDKTSYQHPSDCPKTPSHQPHNSPMCR”, the “soluble on expression in E. coli” value is listed as “soluble”.

With “MGSDKIHHHHHHMNLRHLVFFKELARTQHMAKAAENLGISQPSLSYAIKKLEHELGVPLFEADGRNIKLTSIGGVYLKYVTATLNDLSQGNELVKQLMDPDTGHVKLGFTYTLGQQLVPELLSHFKNQSENQAITFELGQGNSGVLLQALADEKYDIVLASNVDRLGEQLTAHLFDFIPLVQQEIVAVVPNDHPAVQKNPLHVEDLAPYPMILFSQNSGLRPLIDQILSAAHVQPKVAYEVEEDYTMAGFVRYNMGVALMPYLPLLNPERVQIKHLADQPLQHQIYLVVRRSGFITPAVHRFQEFIRSYCWQHYTNQERSI”, the “soluble on expression in E. coli” value is “not soluble”.

“MSLVSLPKLSAKIIIRLIYIYQIGISPILGHHCRFSITCSQYGINSIRNFGILKGCWKTCIRILKCHPFNKNDNTQEGHHHHHH”: the “soluble on expression in E. coli” value is recorded as “soluble”.

Consider “DRKQQERELTETNSVLSSVLDNMPVGILIEDADRTITTANKKLLDILDVSLTPSGLIGCEYAEIAETLKTQFADPDQFNETVNKIHSTRDAVFDEELLMADGRILARSYVSYSLPDGTGNIWLYRDIT”, for which the “soluble on expression in E. coli” value is recorded as “not soluble”.

For the sequence “MGHHHHHHSHMEALARLHLTVTRAYKVNTDINFEVFIHKVDGLSDDHKIETQRDIHQRANDDLADAGLEKIHLSFYLTSIYDHSIFEAFSKVVQKLIPQLPTLENLLNIFISNSGIEKAFLFDVVSKIYIATDSTPVDMQTYELCCDMIDVVIDISCIYGLKEDGAGTPYDKESTAIIKLNNTTVLYLKEVTKFLALVCFVREESFERKGLIDYNFHCFRKAIHEVFEVRMKVVKSRKVQNRLQKKKRATPNGTPRVLL”, the “soluble on expression in E. coli” value was “soluble”.

As for “PLPEACADMLWSNLGLLAAEQILPVLHNWARALKTDGLLFFTCFGRDTLAELKCRLKENGIESRSALFPDMHDLGDMLAENGFYDPVTDTAKLVLDYKKAETFWADMDTLGVWRAMAWNDENAARSCVGTIFEREGGLGITLETVYGHAVK”, the “soluble on expression in E. coli” value is recorded as “not soluble”.

“MAQILPIRFQEHLQLQNLGINPANIGFSTLTMESDKFICIREKVGEQAQVVIIDMNDPSNPIRRPISADSAIMNPASKVIALKAGKTLQIFNIEMKSKMKAHTMTDDVTFWKWISLNTVALVTDNAVYHWSMEGESQPVKMFDRHSSLAGCQIINYRTDAKQKWLLLTGISAQQNRVVGAMQLYSVDRKVSQPIEGHAASFAQFKMEGNAEESTLFCFAVRGQAGGKLHIIEVGTPPTGNQPFPKKAVDVFFPPEAQNDFPVAMQISEKHDVVFLITKYGYIHLYDLETGTCIYMNRISGETIFVTAPHEATAGIIGVNRKGQVLSVCVEEENIIPYITNVLQNPDLALRMAVRNNLAGAEEL”: the “soluble on expression in E. coli” value is given as “soluble”.

On to “MSMSNGDAQKDTKTTAETKQTEQKTADSKKSNTQNSEFSLESQYFNDIKKVDGLETIQNPENILALVNKQYALPGNYEPSDLVIPDVEFSFEEKIQKRYIRKEAADALKTMFDAAKKEGYELAAVSGYRSYDRQKVIFDNEVSLKGERKAKEAVAYPGESEHQTGLAMDISSRSNGFELNEAFGSTADGKWVQDNAYKYGFIIRYPKNKEDITKYEYEPWHLRYVGKKAAKVIQDNDLTLEEYFEKVKKILEHHHHHH”, for which the “soluble on expression in E. coli” value is listed as “not soluble”.

With “MGSDKIHHHHHHDAVRTYYAKAISANEKTNSVCMFVKEAEKWAMDWDEKAKDPQFQKPPLFGLPMSLKECVPLEGYDQTRGFVQDTFRPTETDGVLVQQLKKLGAIPYVQTNVPQSLLSYNCSNPVYGTTNHPMDKTRTSGGSSGGESALISADGSLLGIGGDVGGSIRIPCAYTGTTGIKPSHLRFSHRGVCGSVPGRPLINSNDGPMSTRVETNVDFLRTVWADTWITEQDPYVPPVTWNEEAYKSDKKLKIGYYVDDGWFTPTPVCQRAVMEAKQILEDSGHTLVPFRPPRVPEVLRMFLRAVCVDAGTFLSKKLMNDIIDPLLYTQVVLWMVPVPIQRFLSSIIKVFFPRLGNLMDAMTLSTVELRNTYADIEAYRSEMAGLMVDQKIDALLCPVTVSPALPHVSPSKLFAGTSYTGIFNLLDYAAGSVNVTHVTKQDELDLEDYEESDPWYALAKKGSRGTIGFPIGVQVATPPYKEETCLRIMREIERGVTGK”, the “soluble on expression in E. coli” value is “not soluble”.

“MSQKTEQDDIPLADDDDTVTIISGGKTPRAAQPLPKEEPPEDPEEKARMITQVLELQNTLDDLSQRVESVKEESLKLRSENQVLGQYIQNLMSSSSVFQSSQPSRPKQ”: the “soluble on expression in E. coli” value is listed as “soluble”.

Turning to “MSGAESYRHITVLLNEAVDALAVREDGVYVDGTFGRGGHSRLILSRLGDAGRLIVFDKDPQAIAVAEELARSDKRVGVVHGGFASFQTALDGLGIGKVDGALFDLGISSPQIDDGSRGFSFRFDAPLDMRMDTTRGMSAAEWIAVASEQDLHEVIKNYGEERFSRQIARAIVAQRAESPIDTTRKLAQIVAQNVRTRERGQDPATRTFQAIRIFINRELEEVGAVLPQVMCRLKEGGRLAVIAFHSLEDRIVKQFVKKYSQHAPLPRWAAVREADLPEPPLKIAGRALKPGEAEIAANPRARSAVLRVAERTAGPIPEQSQRKTSEWQLEHHHHHH”, the “soluble on expression in E. coli” value is on record as “not soluble”.

For the sequence “GSRRLLEETLAPFRLNHDQLAAVQAQMRKAMAKGLRGEASSLRMLPTFVRATPDGSERGDFLALDLGGTNFRVLLVRVTTGVQITSEIYSIPETVAQGSGQQLFDHIVDCIVDFQQKQGLSGQSLPLGFTFSFPCRQLGLDQGILLNWTKGFKASDCEGQDVVSLLREAITRRQAVELNVVAIVNDTVGTMMSCGYEDPRCEIGLIVGTGTNACYMEELRNVAGVPGDSGRMCINMEWGAFGDDGSLAMLSTRFDASVDQASINPGKQRFEKMISGMYLGEIVRHILLHLTSLGVLFRGQQIQRLQTRDIFKTKFLSEIESDSLALRQVRAILEDLGLPLTSDDALMVLEVCQAVSQRAAQLCGAGVAAVVEKIRENRGLEELAVSVGVDGTLYKLHPRFSSLVAATVRELAPRCVVTFLQSEDGSGKGAALVTAVACRLAQLTR”, the “soluble on expression in E. coli” value was “soluble”.

In the case of “MKEKISKKEYNALIRKTGEKHFDGEKEEYGDGTVGLWTYELRKYKLKPPVKVKYVTQEEFGEFKDATNQRLTKIENALVAQGEQIRAQGEQLSQLIKVVLLQGEQIKSQGEQIKSLEHHHHHH”, the “soluble on expression in E. coli” value is recorded as “not soluble”.
